These results are taken from patent publication US20250002610A1 (Genmab, published 2025).

The EC50 is the concentration giving half of the maximal effect. Read a high EC50 as weaker potency.

Test [1] addresses T1, human DR4 (Death Receptor 4), cell surface expressed on human tumor cell lines (human, UniProt O00220 24-468).
T1 construct: also called TNFRSF10A; TRAIL-R1
T1 sequence: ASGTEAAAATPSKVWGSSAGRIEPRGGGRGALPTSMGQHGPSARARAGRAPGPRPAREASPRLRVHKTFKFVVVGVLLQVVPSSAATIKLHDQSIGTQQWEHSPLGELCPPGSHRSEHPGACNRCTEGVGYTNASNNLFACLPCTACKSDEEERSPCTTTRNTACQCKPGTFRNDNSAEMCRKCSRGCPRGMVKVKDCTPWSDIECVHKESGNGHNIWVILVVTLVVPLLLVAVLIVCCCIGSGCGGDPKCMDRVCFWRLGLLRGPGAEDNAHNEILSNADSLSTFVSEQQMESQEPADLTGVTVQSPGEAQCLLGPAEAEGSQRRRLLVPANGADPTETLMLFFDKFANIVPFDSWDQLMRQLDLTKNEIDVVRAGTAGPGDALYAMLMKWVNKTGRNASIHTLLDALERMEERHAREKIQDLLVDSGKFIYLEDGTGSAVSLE
In words: flow cytometry, A549 cells, n = 2. In general terms: Flow cytometry measures light scatter and fluorescence of single cells or particles in a stream.

Test [2] concerns the target T1, human DR4 (Death Receptor 4), cell …. In words: flow cytometry, DLD-1 cells, n = 1.
Test [3] shares this target. In words: flow cytometry, DLD-1 cells, n = 2.
Test [4] has the same target. Description: flow cytometry, MDA-MB-231 cells, n = 1.
Test [5] has the same target. In words: flow cytometry, MDA-MB-231 cells, N = 2.
The target is the same in test [6]. In words: flow cytometry, DLD-1 cells, average ± SEM.
Test [7] shares this target. Description: flow cytometry, MDA-MB-231 cells, average ± SEM.
Test [8] shares this target. In words: flow cytometry, MDA-MB-231 cells, average ± SEM. This is another data set of the same source.
Test [9] deals with T2, human FAPα (Fibroblast activation protein alpha), cell surface expressed (human, UniProt Q12884 1-760).
T2 construct: Endogenous on human lung fibroblasts and CAFs
T2 sequence: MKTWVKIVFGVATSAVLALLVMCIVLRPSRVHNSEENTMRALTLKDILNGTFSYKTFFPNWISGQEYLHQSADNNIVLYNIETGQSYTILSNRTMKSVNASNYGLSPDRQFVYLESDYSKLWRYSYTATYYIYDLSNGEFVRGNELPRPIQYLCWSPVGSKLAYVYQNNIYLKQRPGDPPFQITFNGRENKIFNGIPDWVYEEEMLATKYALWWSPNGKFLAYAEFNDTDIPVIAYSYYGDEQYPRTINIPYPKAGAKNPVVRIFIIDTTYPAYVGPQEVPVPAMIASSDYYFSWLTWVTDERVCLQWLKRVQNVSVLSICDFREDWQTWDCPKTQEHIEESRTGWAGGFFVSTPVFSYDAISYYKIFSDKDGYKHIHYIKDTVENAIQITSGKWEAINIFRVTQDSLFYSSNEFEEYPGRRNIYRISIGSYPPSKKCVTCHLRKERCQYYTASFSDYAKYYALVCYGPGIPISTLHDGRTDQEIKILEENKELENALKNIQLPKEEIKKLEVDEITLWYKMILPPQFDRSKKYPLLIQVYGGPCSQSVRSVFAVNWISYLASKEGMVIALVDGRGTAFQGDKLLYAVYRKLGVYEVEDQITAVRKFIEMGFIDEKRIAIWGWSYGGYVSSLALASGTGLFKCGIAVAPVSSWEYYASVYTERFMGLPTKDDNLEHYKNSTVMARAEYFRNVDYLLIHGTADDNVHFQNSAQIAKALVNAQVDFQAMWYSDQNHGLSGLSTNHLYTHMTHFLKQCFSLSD
In words: flow cytometry, human lung fibroblasts, n = 2. The protocol:
Binding of bispecific or monoclonal antibodies carrying the anti-FAPα arm derived from IgG1-FAPα-FERL (BisG1-FAPα-FERL/DR4-FERR, BisG1-FAPα-FERL/b12-FERR, and IgG1-FAPα-FERL) to cell surface expressed human FAPα was analyzed by flow cytometry using human lung fibroblasts and CAFs, which endogenously express FAPα. BisG1-b12-FERL/b12-FERR was used as negative control.
Human lung fibroblasts and CAFs (50,000 cells/well) were seeded in 96-Well round bottom plates (Greiner Bio-one, Cat #650101). Antibody dilutions were prepared using fluorescence-activated cell sorting (FACS) buffer, consisting of phosphate buffer saline (PBS, Lonza, Cat #BE17-517Q)+1% Bovine Serum Albumin (BSA, Roche, Cat #10735086001)+0.02% Sodium Azide (Bio-World, Cat #41920044-3). Plates were centrifuged, supernatant was removed, cells were resuspended in 50 μL of human Fc Block (BD, Cat #564220, diluted 1:100 in FACS buffer) and 50 μL of viability stain TO-PRO-3 Iodide (Thermo Fisher, Cat #T3605, diluted 1: 25,000 in FACS buffer), and incubated for 15 min at 4° C. Plates were washed three times with FACS buffer. Plates were centrifuged, supernatant was removed, cells were resuspended in 50 μL of antibody dilutions (concentration range 90-0.0005 μg/mL, three-fold dilution steps using FACS buffer) of BisG1-FAPα-FERL/DR4-FERR, BisG1-FAPα-FERL/b12-FERR, BisG1-b12-FERL/b12-FERR (top six concentrations only for CAFs culture) or IgG1-FAPα-FERL (top four concentrations only for CAFs culture) and incubated for 30 min at 4° C. Cells were washed three times with FACS buffer and resuspended in 50 μL of Fluorescein isothiocyanate (FITC)-labeled polyclonal antibody goat anti-mouse IgG1 (Jackson Immuno Research, Cat #109-096-097, diluted 1:100 in FACS buffer). […] Antibody binding to viable cells (TO-PRO-3 negative) was analyzed by flow cytometry on a FACSCelesta™ (BD biosciences) and data were processed using FlowJo_v10.8.1 (FlowJo LLC). Geomean fluorescence intensity, gMFI, was determined and visualized using GraphPad Prism.

B1: IgG1-DR4-FERR (antibody, V domains shown)
VH: QVQLQESGPGLVKPSGTLSLTCAVSGGSISSYSWWSWIRQPPGKGLEWIGELYHSGSTNYNPSLKSRVTISVDKSKNQFSLKLRSVTAADTAVYYCVRGVATIDYWGQGTLVTVSS
VL: QSALTQPPSASGSPGQSVTISCTGTSSDVGGYNFVSWYQQDPGKAPKLLIYEVTKRPSGVPDRFSGSKSGNTASLTVSGLQAEDEADYYCSSYAGSNNVMFGGGTKLTVLG
notes: Bivalent monoclonal IgG1 lambda
Regarding B1, the half-maximal effective concentration (EC50) in test [1] stood at 0.26 µg/mL; in [2], 0.33 µg/mL; in test [3], 0.22 µg/mL; in test [4], 0.33 µg/mL; in [5] it was 0.26 µg/mL; in test [6] it was 0.26 µg/mL. In addition, the EC50 in test [7] came to 0.32 µg/mL; in [8] it was 0.25 µg/mL.

B2: BisG1-FAPα-FERL/b12-FERR (bispecific antibody, human IgG1, kappa)
heavy 1: EVQLLESGGGLVQPGGSPRLSCEASGFTFSSYALSWVRQAPGKGLEWVSAISGSGGGRYYADSVKGRFTISRDNSKNTLFLQMNSLRAEDTAVYYCAKEGYSSSGTYWDHWGQGTLVTVSSASTKGPSVFPLAPSSKSTSGGTAALGCLVKDYFPEPVTVSWNSGALTSGVHTFPAVLQSSGLYSLSSVVTVPSSSLGTQTYICNVNHKPSNTKVDKRVEPKSCDKTHTCPPCPAPEFERGPSVFLFPPKPKDTLMISRTPEVTCVVVDVSHEDPEVKFNWYVDGVEVHNAKTKPREEQYNSTYRVVSVLTVLHQDWLNGKEYKCKVSNKALPAPIEKTISKAKGQPREPQVYTLPPSREEMTKNQVSLTCLVKGFYPSDIAVEWESNGQPENNYKTTPPVLDSDGSFLLYSKLTVDKSRWQQGNVFSCSVMHEALHNHYTQKSLSLSPG
light 1: AIQMTQSPSSVSASVGDRVTITCRASQGVSSWLAWYQQKPGRAPKLLIYVASTLQSGVPSRFSGSGSGTDFTLTINSLQPEDFATYYCQQANSFPPTFGQGTRLEMKRTVAAPSVFIFPPSDEQLKSGTASVVCLLNNFYPREAKVQWKVDNALQSGNSQESVTEQDSKDSTYSLSSTLTLSKADYEKHKVYACEVTHQGLSSPVTKSFNRGEC
heavy 2: QVQLVQSGAEVKKPGASVKVSCQASGYRFSNFVIHWVRQAPGQRFEWMGWINPYNGNKEFSAKFQDRVTFTADTSANTAYMELRSLRSADTAVYYCARVGPYSWDDSPQDNYYMDVWGKGTTVIVSSASTKGPSVFPLAPSSKSTSGGTAALGCLVKDYFPEPVTVSWNSGALTSGVHTFPAVLQSSGLYSLSSVVTVPSSSLGTQTYICNVNHKPSNTKVDKRVEPKSCDKTHTCPPCPAPEFERGPSVFLFPPKPKDTLMISRTPEVTCVVVDVSHEDPEVKFNWYVDGVEVHNAKTKPREEQYNSTYRVVSVLTVLHQDWLNGKEYKCKVSNKALPAPIEKTISKAKGQPREPQVYTLPPSREEMTKNQVSLTCLVKGFYPSDIAVEWESNGQPENNYKTTPPVLDSDGSFFLYSRLTVDKSRWQQGNVFSCSVMHEALHNHYTQKSLSLSPG
light 2: EIVLTQSPGTLSLSPGERATFSCRSSHSIRSRRVAWYQHKPGQAPRLVIHGVSNRASGISDRFSGSGSGTDFTLTITRVEPEDFALYYCQVYGASSYTFGQGTKLERKRTVAAPSVFIFPPSDEQLKSGTASVVCLLNNFYPREAKVQWKVDNALQSGNSQESVTEQDSKDSTYSLSSTLTLSKADYEKHKVYACEVTHQGLSSPVTKSFNRGEC
As for B2, the half-maximal effective concentration (EC50) in test [9] was found to be 0.034 µg/mL.

B3: IgG1-FAPα-FERL (antibody)
heavy: EVQLLESGGGLVQPGGSPRLSCEASGFTFSSYALSWVRQAPGKGLEWVSAISGSGGGRYYADSVKGRFTISRDNSKNTLFLQMNSLRAEDTAVYYCAKEGYSSSGTYWDHWGQGTLVTVSSASTKGPSVFPLAPSSKSTSGGTAALGCLVKDYFPEPVTVSWNSGALTSGVHTFPAVLQSSGLYSLSSVVTVPSSSLGTQTYICNVNHKPSNTKVDKRVEPKSCDKTHTCPPCPAPEFERGPSVFLFPPKPKDTLMISRTPEVTCVVVDVSHEDPEVKFNWYVDGVEVHNAKTKPREEQYNSTYRVVSVLTVLHQDWLNGKEYKCKVSNKALPAPIEKTISKAKGQPREPQVYTLPPSREEMTKNQVSLTCLVKGFYPSDIAVEWESNGQPENNYKTTPPVLDSDGSFLLYSKLTVDKSRWQQGNVFSCSVMHEALHNHYTQKSLSLSPG
light: AIQMTQSPSSVSASVGDRVTITCRASQGVSSWLAWYQQKPGRAPKLLIYVASTLQSGVPSRFSGSGSGTDFTLTINSLQPEDFATYYCQQANSFPPTFGQGTRLEMKRTVAAPSVFIFPPSDEQLKSGTASVVCLLNNFYPREAKVQWKVDNALQSGNSQESVTEQDSKDSTYSLSSTLTLSKADYEKHKVYACEVTHQGLSSPVTKSFNRGEC
notes: Bivalent monoclonal IgG1 kappa
For the molecule B3, in test [9], it took 0.006 µg/mL to reach a half-maximal effect (EC50).
